# Measurements published in article PMC6509359.
# “And” between values parts separate entries of the source, which are not always exact repeats. Equal values may be shown once.
# T1: Human USP25 (1-1055) (human), Q9UHP3
# T1 chain: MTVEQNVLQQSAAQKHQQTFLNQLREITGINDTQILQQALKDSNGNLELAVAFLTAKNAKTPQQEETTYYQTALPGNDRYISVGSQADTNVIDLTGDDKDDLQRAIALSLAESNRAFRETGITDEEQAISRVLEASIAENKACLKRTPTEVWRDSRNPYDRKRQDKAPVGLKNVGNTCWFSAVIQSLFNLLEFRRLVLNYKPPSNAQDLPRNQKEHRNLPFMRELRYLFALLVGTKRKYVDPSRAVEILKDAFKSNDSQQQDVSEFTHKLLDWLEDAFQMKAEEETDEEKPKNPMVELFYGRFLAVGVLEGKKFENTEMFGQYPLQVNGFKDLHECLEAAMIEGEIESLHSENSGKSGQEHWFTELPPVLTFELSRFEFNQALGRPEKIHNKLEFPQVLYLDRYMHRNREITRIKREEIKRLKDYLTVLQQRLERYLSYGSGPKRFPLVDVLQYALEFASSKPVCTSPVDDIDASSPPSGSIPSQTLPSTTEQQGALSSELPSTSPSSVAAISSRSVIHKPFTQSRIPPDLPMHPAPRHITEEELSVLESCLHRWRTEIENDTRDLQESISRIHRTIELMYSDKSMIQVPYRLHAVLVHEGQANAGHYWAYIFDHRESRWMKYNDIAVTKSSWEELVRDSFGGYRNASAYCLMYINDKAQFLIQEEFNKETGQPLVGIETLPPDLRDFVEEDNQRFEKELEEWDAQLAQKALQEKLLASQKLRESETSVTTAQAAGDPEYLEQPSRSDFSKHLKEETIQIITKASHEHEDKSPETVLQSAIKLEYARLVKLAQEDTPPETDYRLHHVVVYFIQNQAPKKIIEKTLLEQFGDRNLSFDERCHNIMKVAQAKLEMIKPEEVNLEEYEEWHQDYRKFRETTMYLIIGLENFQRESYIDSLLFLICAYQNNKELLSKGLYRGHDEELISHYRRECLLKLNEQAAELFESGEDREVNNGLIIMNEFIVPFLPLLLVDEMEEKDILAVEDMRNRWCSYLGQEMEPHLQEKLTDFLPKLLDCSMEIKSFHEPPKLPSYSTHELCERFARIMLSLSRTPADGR
# T2: endogenous USP25 (human (endogenous in HEK293)), Q9UHP3
# T2 chain: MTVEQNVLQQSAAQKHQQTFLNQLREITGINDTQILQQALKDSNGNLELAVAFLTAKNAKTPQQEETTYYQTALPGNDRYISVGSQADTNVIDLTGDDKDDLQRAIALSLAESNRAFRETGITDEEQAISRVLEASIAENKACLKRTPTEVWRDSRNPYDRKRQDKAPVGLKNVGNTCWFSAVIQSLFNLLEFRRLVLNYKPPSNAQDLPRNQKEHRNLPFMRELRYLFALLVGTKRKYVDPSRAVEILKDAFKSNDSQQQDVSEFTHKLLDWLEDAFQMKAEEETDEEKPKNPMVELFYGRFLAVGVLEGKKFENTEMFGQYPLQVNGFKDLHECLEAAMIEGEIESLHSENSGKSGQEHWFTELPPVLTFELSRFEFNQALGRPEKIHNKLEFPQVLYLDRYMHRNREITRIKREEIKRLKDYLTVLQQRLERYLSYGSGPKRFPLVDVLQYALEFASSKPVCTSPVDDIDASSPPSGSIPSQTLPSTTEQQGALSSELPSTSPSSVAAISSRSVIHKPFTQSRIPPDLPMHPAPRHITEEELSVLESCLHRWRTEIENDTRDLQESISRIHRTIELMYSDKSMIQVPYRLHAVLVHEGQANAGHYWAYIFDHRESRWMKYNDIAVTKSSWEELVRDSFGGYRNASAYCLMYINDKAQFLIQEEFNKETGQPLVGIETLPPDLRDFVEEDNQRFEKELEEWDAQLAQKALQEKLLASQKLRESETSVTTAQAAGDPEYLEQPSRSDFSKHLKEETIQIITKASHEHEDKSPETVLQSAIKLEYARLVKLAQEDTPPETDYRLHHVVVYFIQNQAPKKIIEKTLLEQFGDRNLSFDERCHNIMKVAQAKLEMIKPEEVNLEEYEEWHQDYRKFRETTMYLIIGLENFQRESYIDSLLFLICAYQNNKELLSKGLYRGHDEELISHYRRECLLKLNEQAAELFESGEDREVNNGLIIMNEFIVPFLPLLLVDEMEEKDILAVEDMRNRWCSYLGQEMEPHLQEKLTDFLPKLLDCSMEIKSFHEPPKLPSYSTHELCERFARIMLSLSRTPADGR
# What was measured:
# Conditions in all cases: remark: other sources report otherwise
# [1] = target: T1, Human USP25 (1-1055) (human), Q9UHP3; assay: not stated; oligomeric states of purified orthologs and of full-length proteins, Figures S7A, S7B and S3J
# [2] = target: T1, Human USP25 (1-1055) (human), Q9UHP3; assay: SEC-MALS; five-fold dilution series (1 mg/mL, 0.2 mg/mL, 0.04 mg/mL sample concentration)
# [3] = target: T1, Human USP25 (1-1055) (human), Q9UHP3; assay: SEC + native gel or EMSA; recombinant full-length USP25 on HiLoad 16/600 Superdex 200 pg in buffer E immediately before native PAGE, Ponceau staining
# [4] = target: T2, endogenous USP25 (human (endogenous in …)); assay: native gel or EMSA; native PAGE of lysate of untreated HEK293 cells, immunoblotting for the endogenous protein; recombinant USP25 tetramer and dimer fractions as size standard
stoichiometry N [1],stoichiometry N [2],stoichiometry N [3],stoichiometry N [4],Binder
2 and 4,4 and 2,4 and 2,,"Human USP25 (1-1055), Q9UHP3 1-1055 (enzyme) MTVEQNVLQQSAAQKHQQTFLNQLREITGINDTQILQQALKDSNGNLELAVAFLTAKNAKTPQQEETTYYQTALPGNDRYISVGSQADTNVIDLTGDDKDDLQRAIALSLAESNRAFRETGITDEEQAISRVLEASIAENKACLKRTPTEVWRDSRNPYDRKRQDKAPVGLKNVGNTCWFSAVIQSLFNLLEFRRLVLNYKPPSNAQDLPRNQKEHRNLPFMRELRYLFALLVGTKRKYVDPSRAVEILKDAFKSNDSQQQDVSEFTHKLLDWLEDAFQMKAEEETDEEKPKNPMVELFYGRFLAVGVLEGKKFENTEMFGQYPLQVNGFKDLHECLEAAMIEGEIESLHSENSGKSGQEHWFTELPPVLTFELSRFEFNQALGRPEKIHNKLEFPQVLYLDRYMHRNREITRIKREEIKRLKDYLTVLQQRLERYLSYGSGPKRFPLVDVLQYALEFASSKPVCTSPVDDIDASSPPSGSIPSQTLPSTTEQQGALSSELPSTSPSSVAAISSRSVIHKPFTQSRIPPDLPMHPAPRHITEEELSVLESCLHRWRTEIENDTRDLQESISRIHRTIELMYSDKSMIQVPYRLHAVLVHEGQANAGHYWAYIFDHRESRWMKYNDIAVTKSSWEELVRDSFGGYRNASAYCLMYINDKAQFLIQEEFNKETGQPLVGIETLPPDLRDFVEEDNQRFEKELEEWDAQLAQKALQEKLLASQKLRESETSVTTAQAAGDPEYLEQPSRSDFSKHLKEETIQIITKASHEHEDKSPETVLQSAIKLEYARLVKLAQEDTPPETDYRLHHVVVYFIQNQAPKKIIEKTLLEQFGDRNLSFDERCHNIMKVAQAKLEMIKPEEVNLEEYEEWHQDYRKFRETTMYLIIGLENFQRESYIDSLLFLICAYQNNKELLSKGLYRGHDEELISHYRRECLLKLNEQAAELFESGEDREVNNGLIIMNEFIVPFLPLLLVDEMEEKDILAVEDMRNRWCSYLGQEMEPHLQEKLTDFLPKLLDCSMEIKSFHEPPKLPSYSTHELCERFARIMLSLSRTPADGR"
,,,2 and 4,"endogenous USP25, Q9UHP3 1-1055 (enzyme) MTVEQNVLQQSAAQKHQQTFLNQLREITGINDTQILQQALKDSNGNLELAVAFLTAKNAKTPQQEETTYYQTALPGNDRYISVGSQADTNVIDLTGDDKDDLQRAIALSLAESNRAFRETGITDEEQAISRVLEASIAENKACLKRTPTEVWRDSRNPYDRKRQDKAPVGLKNVGNTCWFSAVIQSLFNLLEFRRLVLNYKPPSNAQDLPRNQKEHRNLPFMRELRYLFALLVGTKRKYVDPSRAVEILKDAFKSNDSQQQDVSEFTHKLLDWLEDAFQMKAEEETDEEKPKNPMVELFYGRFLAVGVLEGKKFENTEMFGQYPLQVNGFKDLHECLEAAMIEGEIESLHSENSGKSGQEHWFTELPPVLTFELSRFEFNQALGRPEKIHNKLEFPQVLYLDRYMHRNREITRIKREEIKRLKDYLTVLQQRLERYLSYGSGPKRFPLVDVLQYALEFASSKPVCTSPVDDIDASSPPSGSIPSQTLPSTTEQQGALSSELPSTSPSSVAAISSRSVIHKPFTQSRIPPDLPMHPAPRHITEEELSVLESCLHRWRTEIENDTRDLQESISRIHRTIELMYSDKSMIQVPYRLHAVLVHEGQANAGHYWAYIFDHRESRWMKYNDIAVTKSSWEELVRDSFGGYRNASAYCLMYINDKAQFLIQEEFNKETGQPLVGIETLPPDLRDFVEEDNQRFEKELEEWDAQLAQKALQEKLLASQKLRESETSVTTAQAAGDPEYLEQPSRSDFSKHLKEETIQIITKASHEHEDKSPETVLQSAIKLEYARLVKLAQEDTPPETDYRLHHVVVYFIQNQAPKKIIEKTLLEQFGDRNLSFDERCHNIMKVAQAKLEMIKPEEVNLEEYEEWHQDYRKFRETTMYLIIGLENFQRESYIDSLLFLICAYQNNKELLSKGLYRGHDEELISHYRRECLLKLNEQAAELFESGEDREVNNGLIIMNEFIVPFLPLLLVDEMEEKDILAVEDMRNRWCSYLGQEMEPHLQEKLTDFLPKLLDCSMEIKSFHEPPKLPSYSTHELCERFARIMLSLSRTPADGR"
